This is an account of results in patent US20110097323A1 (published 2011).

Substitutions are numbered along the chain they refer to. Names and notes keep the numbering of the source.

By koff is commonly meant the rate constant with which the complex falls apart. A word on the kon: it is the rate constant with which the complex forms.

Sequences and labels used below:
T1: CD32B (FcγRII-B) (UniProt P31994 43-217, limits assumed)
T1 construct: No species or construct stated
T1 sequence (looked up): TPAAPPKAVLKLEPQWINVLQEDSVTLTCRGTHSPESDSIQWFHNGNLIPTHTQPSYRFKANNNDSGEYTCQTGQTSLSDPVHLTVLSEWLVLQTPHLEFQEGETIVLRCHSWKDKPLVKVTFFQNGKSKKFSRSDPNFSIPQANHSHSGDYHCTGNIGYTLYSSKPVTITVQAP

B1: ch4D5-wild-type Fc (antibody, human IgG1, kappa)
heavy: not shown
light: DIVMTQSHKFMSTSVGDRVSITCKASQDVNTAVAWYQQKPGHSPKLLIYSASFRYTGVPDRFTGSRSGTDFTFTISSVQAEDLAVYYCQQHYTTPPTFGGGTKVEIKRTVAAPSVFIFPPSDEQLKSGTASVVCLLNNFYPREAKVQWKVDNALQSGNSQESVTEQDSKDSTYSLSSTLTLSKADYEKHKVYACEVTHQGLSSPVTKSFNRGEC
notes: Chimeric 4D5 antibody; wild-type Fc; also called ch4D5-FcWT; ch4D5-FcWT (wild-type Fc)
B2: Fc variant D270E G316D P396L R416G (other, UniProt P01857-1 99-330, looked up, name in EU numbering)
chain: EPKSCDKTHTCPPCPAPELLGGPSVFLFPPKPKDTLMISRTPEVTCVVVDVSHEEPEVKFNWYVDGVEVHNAKTKPREEQYNSTYRVVSVLTVLHQDWLNDKEYKCKVSNKALPAPIEKTISKAKGQPREPQVYTLPPSRDELTKNQVSLTCLVKGFYPSDIAVEWESNGQPENNYKTTPLVLDSDGSFFLYSKLTVDKSGWQQGNVFSCSVMHEALHNHYTQKSLSLSPGK
notes: domain: Fc region; positions are EU index; also called D270E P396L G316D R416G
B3: Fc variant D270E G316D R416G (other, UniProt P01857-1 99-330, looked up, name in EU numbering)
chain: B2 chain with L181P
notes: domain: Fc region; positions are EU index
B4: Fc variant R292P V305I P396L (other, UniProt P01857-1 99-330, looked up, name in EU numbering)
chain: B2 chain with E55D, R77P, V90I, D101G, G201R
notes: as for B3
B5: Fc variant D270E K392T P396L (other, UniProt P01857-1 99-330, looked up, name in EU numbering)
chain: B2 chain with D101G, K177T, G201R
notes: as for B3
B6: Fc variant F243L D270E G316D R416G (other, UniProt P01857-1 99-330, looked up, name in EU numbering)
chain: B2 chain with F28L, L181P
notes: as for B3
B7: Fc variant F243L R255L D270E P396L (other, UniProt P01857-1 99-330, looked up, name in EU numbering)
chain: B2 chain with F28L, R40L, D101G, G201R
notes: as for B3
B8: Fc variant F243L D270E P396L Q419H (other, UniProt P01857-1 99-330, looked up, name in EU numbering)
chain: B2 chain with F28L, D101G, G201R, Q204H
notes: as for B3
B9: Fc variant F243L D270E K392T P396L (other, UniProt P01857-1 99-330, looked up, name in EU numbering)
chain: B2 chain with F28L, D101G, K177T, G201R
notes: as for B3
B10: Fc variant R255L D270E P396L (other, UniProt P01857-1 99-330, looked up, name in EU numbering)
chain: B2 chain with R40L, D101G, G201R
notes: as for B3
B11: Fc variant F243L R292P V305I P396L (other, UniProt P01857-1 99-330, looked up, name in EU numbering)
chain: B2 chain with F28L, E55D, R77P, V90I, D101G, G201R
notes: as for B3
B12: Fc variant F243L P247L N421K (other, UniProt P01857-1 99-330, looked up, name in EU numbering)
chain: B2 chain with F28L, P32L, E55D, D101G, L181P, G201R, N206K
notes: as for B3
B13: Fc variant F243L R292P Y300L V305I P396L (other, UniProt P01857-1 99-330, looked up, name in EU numbering)
chain: B2 chain with F28L, E55D, R77P, Y85L, V90I, D101G, G201R
notes: domain: Fc region
B14: Fc variant R255L D270E Y300L P396L (other, UniProt P01857-1 99-330, looked up, name in EU numbering)
chain: B2 chain with R40L, Y85L, D101G, G201R
notes: as for B3
B15: Fc variant F243L P247L D270E N421K (other, UniProt P01857-1 99-330, looked up, name in EU numbering)
chain: B2 chain with F28L, P32L, D101G, L181P, G201R, N206K
notes: as for B3
B16: Fc variant P247L D270E N421K (other, UniProt P01857-1 99-330, looked up, name in EU numbering)
chain: B2 chain with P32L, D101G, L181P, G201R, N206K
notes: as for B3
B17: Fc variant F243L R292P V305I (other, UniProt P01857-1 99-330, looked up, name in EU numbering)
chain: B2 chain with F28L, E55D, R77P, V90I, D101G, L181P, G201R
notes: as for B3
B18: Fc variant F243L R292P Y300L P396L (other, UniProt P01857-1 99-330, looked up, name in EU numbering)
chain: B2 chain with F28L, E55D, R77P, Y85L, D101G, G201R
notes: as for B3
B19: Fc variant D270E P396L Q419H (other, UniProt P01857-1 99-330, looked up, name in EU numbering)
chain: B2 chain with D101G, G201R, Q204H
notes: as for B3
B20: Fc variant R255L D270E R292G P396L (other, UniProt P01857-1 99-330, looked up, name in EU numbering)
chain: B2 chain with R40L, R77G, D101G, G201R
notes: as for B3
B21: ch4D5-FcMT1 (antibody, human IgG1, kappa)
heavy: QVQLQQSGPELVKPGASLKLSCTASGFNIKDTYIHWVKQRPEQGLEWIGRIYPTNGYTRYDPKFQDKATITADTSSNTAYLQVSRLTSEDTAVYYCSRWGGDGFYAMDYWGQGASVTVSSASTKGPSVFPLAPSSKSTSGGTAALGCLVKDYFPEPVTVSWNSGALTSGVHTFPAVLQSSGLYSLSSVVTVPSSSLGTQTYICNVNHKPSNTKVDKRVEPKSCDKTHTCPPCPAPELLGGPSVFLLPPKPKDTLMISRTPEVTCVVVDVSHEDPEVKFNWYVDGVEVHNAKTKPPEEQYNSTLRVVSILTVLHQDWLNGKEYKCKVSNKALPAPIEKTISKAKGQPREPQVYTLPPSRDELTKNQVSLTCLVKGFYPSDIAVEWESNGQPENNYKTTPLVLDSDGSFFLYSKLTVDKSRWQQGNVFSCSVMHEALHNHYTQKSLSLSPGK
light: B1 light

The first test concerns the target T2, HER-2 (UniProt P04626 23-652, limits assumed).
T2 construct: also called HER2/neu; erbB-2
The experiment in a line: SPR (BIAcore 1000), HER-2 amine-coupled to chip, antibody injected at 6.25-200 nM. The procedure:
The kinetic parameters of the binding of eluted and purified antibodies were analyzed using a BIAcore assay (BIAcore instrument 1000, BIAcore Inc., Piscataway, N.J.) and associated software. HER-2 was immobilized on one of the four flow cells (flow cell 2) of a sensor chip surface through amine coupling chemistry (by modification of carboxymethyl groups with mixture of NHS/EDC) such that about 1000 response units (RU) of receptor was immobilized on the surface. Following this, the unreacted active esters were “capped off” with an injection of 1M Et-NH2.
In the case of B1, the koff is roughly 3.2e-07 s⁻¹ and the kon stood at 170000 M⁻¹ s⁻¹.

A further test deals with CD16A F158 (human, UniProt P08637 17-208, limits assumed). Put plainly: Table 3; relative to wild-type Fc; method not stated.
Sequence of CD16A F158 (P08637 17-208 limits assumed): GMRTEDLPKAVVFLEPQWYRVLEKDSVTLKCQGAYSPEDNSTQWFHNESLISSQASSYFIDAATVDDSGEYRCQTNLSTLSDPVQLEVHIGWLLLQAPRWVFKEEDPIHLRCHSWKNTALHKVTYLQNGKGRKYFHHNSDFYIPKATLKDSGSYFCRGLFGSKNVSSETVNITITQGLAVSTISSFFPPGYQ
With B2, the “binding relative to wild-type Fc (fold)” value came out at 0.94.

Take B3: the “binding relative to wild-type Fc (fold)” value stood at 2.49.

In the case of B4, the “binding relative to wild-type Fc (fold)” value was determined as 1.9.

For B5, the “binding relative to wild-type Fc (fold)” value turned out to be 2.28.

As to B6, the “binding relative to wild-type Fc (fold)” value amounted to 1.34.

Turning to B7, the “binding relative to wild-type Fc (fold)” value stood at 1.64.

Consider B8, for which the “binding relative to wild-type Fc (fold)” value amounted to 1.15.

In the case of B9, the “binding relative to wild-type Fc (fold)” value amounted to 2.44.

As for B10, the “binding relative to wild-type Fc (fold)” value is 1.65.

Take B11: the “binding relative to wild-type Fc (fold)” value is 2.53.

Turning to B12, the “binding relative to wild-type Fc (fold)” value was found to be 1.71.

For the molecule B13, the “binding relative to wild-type Fc (fold)” value is 8.25.

As for B14, the “binding relative to wild-type Fc (fold)” value was 1.74.

Consider B15, for which the “binding relative to wild-type Fc (fold)” value amounted to 3.45.

For B16, the “binding relative to wild-type Fc (fold)” value came out at 2.46.

Consider B17, for which the “binding relative to wild-type Fc (fold)” value was 1.43.

On to B18, for which the “binding relative to wild-type Fc (fold)” value stood at 5.62.

In a further test the target is CD16A V158 (human, UniProt P08637 17-208, limits assumed). The test is described as above.
Sequence of CD16A V158 (P08637 17-208 F176V limits assumed): as the sequence (P08637 17-208 limits assumed) above, with F160V counted along it
On to B2, for which the “binding relative to wild-type Fc (fold)” value was 1.22.

In the case of B3, the “binding relative to wild-type Fc (fold)” value came to 2.18.

Take B4: the “binding relative to wild-type Fc (fold)” value turned out to be 1.85.

B5: the “binding relative to wild-type Fc (fold)” value worked out at 1.81.

For B6, the “binding relative to wild-type Fc (fold)” value was determined as 1.5.

With B7, the “binding relative to wild-type Fc (fold)” value was 1.75.

With B8, the “binding relative to wild-type Fc (fold)” value came out at 1.46.

As for B19, the “binding relative to wild-type Fc (fold)” value turned out to be 1.64.

Turning to B9, the “binding relative to wild-type Fc (fold)” value was 3.16.

B10: the “binding relative to wild-type Fc (fold)” value amounted to 1.34.

In the case of B11, the “binding relative to wild-type Fc (fold)” value was 5.37.

Consider B12, for which the “binding relative to wild-type Fc (fold)” value was 1.89.

B13: the “binding relative to wild-type Fc (fold)” value worked out at 10.1.

Turning to B14, the “binding relative to wild-type Fc (fold)” value was 1.52.

As to B15, the “binding relative to wild-type Fc (fold)” value worked out at 2.3.

Consider B16, for which the “binding relative to wild-type Fc (fold)” value came to 1.89.

On to B17, for which the “binding relative to wild-type Fc (fold)” value amounted to 2.56.

Turning to B18, the “binding relative to wild-type Fc (fold)” value was 10.1.

The next test addresses T1, CD32B (FcγRII-B). The test is described as above.
B2: the “binding relative to wild-type Fc (fold)” value is 1.07.

On to B20, for which the “binding relative to wild-type Fc (fold)” value is 0.65.

As for B3, the “binding relative to wild-type Fc (fold)” value stood at 0.78.

B4: the “binding relative to wild-type Fc (fold)” value was 0.92.

With B5, the “binding relative to wild-type Fc (fold)” value was 0.79.

On to B6, for which the “binding relative to wild-type Fc (fold)” value was found to be 0.2.

Regarding B7, the “binding relative to wild-type Fc (fold)” value was found to be 0.38.

For B8, the “binding relative to wild-type Fc (fold)” value worked out at 0.26.

As to B19, the “binding relative to wild-type Fc (fold)” value was 0.68.

Consider B9, for which the “binding relative to wild-type Fc (fold)” value was 0.44.

Take B10: the “binding relative to wild-type Fc (fold)” value was 0.87.

For B11, the “binding relative to wild-type Fc (fold)” value was determined as 0.4.

B12: the “binding relative to wild-type Fc (fold)” value amounted to 0.17.

With B13, the “binding relative to wild-type Fc (fold)” value amounted to 1.38.

For B14, the “binding relative to wild-type Fc (fold)” value came out at 0.87.

With B15, the “binding relative to wild-type Fc (fold)” value is 0.32.

Regarding B16, the “binding relative to wild-type Fc (fold)” value amounted to 0.58.

Consider B18, for which the “binding relative to wild-type Fc (fold)” value stood at 1.07.

The target of a further test is human CD16A (FcγRIII-A) (human, UniProt P08637 17-208, limits assumed). The experiment in a line: method not stated; reference not named (Fc-optimized against wild-type).
Sequence of human CD16A (FcγRIII-A) (P08637 17-208 limits assumed): as the sequence (P08637 17-208 limits assumed) above
For the molecule B21, the “fold increase in binding” value stood at 10 fold.
